Data published in article PMC9135449.

Molecular target: T1, HP1043 (Helicobacter pylori 26695?) (UniProt O25684)
T1 sequence: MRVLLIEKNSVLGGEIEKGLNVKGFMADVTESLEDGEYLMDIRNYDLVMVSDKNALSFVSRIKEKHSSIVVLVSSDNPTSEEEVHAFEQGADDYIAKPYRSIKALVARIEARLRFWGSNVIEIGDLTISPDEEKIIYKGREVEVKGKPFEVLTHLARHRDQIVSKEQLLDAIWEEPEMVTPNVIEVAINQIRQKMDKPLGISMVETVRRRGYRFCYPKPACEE
Test: EMSA
Conditions: 10 mM Tris-HCl pH 7.5, 40 mM KCl, 100 ug/ml BSA, 1 mM DTT, 5% glycerol, 25 ul, room temperature 30 min; 6% native PAGE in 45 mM Tris/45 mM orthoboric acid …

“GCCAAAACGCCTAAAGCCACAATAACCTTTTTCATCGTTTGTCTCCTCTACTTATCAAAATGATCTTAAAATGATACAATTACAAGTTTAAGTTTTGCTTAAAAAATGAAGTGAAAATAAGAGAAATAAATATGATTTTATACATTCATATCCCCTTTTGTGAAAATAAATGCGGTTATTGCGCTTTCAA (double strand) [Php1227 190-bp promoter probe]” was tested, and the binding was “binds”.
